Consider 17 sequences from the DeepSol protein solubility set.

A short description of this data set: soluble on expression in E. coli; label from the status in PepcDB or PDB records.
With “MGSDKIHHHHHHMRISYGVENLRSLTRTPEIELRPITILIGRNSAGKSTYLRSFALMRQSLEVKSSAPILWYGDYVDFGDFDAAVSNGDKDSDITFNFRVEDLDTRDVEDEIYYYNEYAYRSSRRKISYQAVSLSISLGEQLRRTVRRRIALEIPEDRISAVASFEKDGRECSDFQINGQRLSDLIPNVAVYFRASDIFDRPVLVRQVRKDGKSLRRVVGAASEIGSAISQRLRQQVDKRISEENLAIEARRILNHPRLDPTSLQQLRLRAGNRSFRKLYDRWLKDEASTTLAEIDHLCALNHALITVGRVSSVLKGFFRNTTYLGPARARSERYYRSQELEVSEISPDGQNLPMFLASLSTTEQGRFSDWVEEAFGFGVLVERKEGHVSIKLRQRTISVNVADTGYGVSQILPVLAQIWWATQIPRNYTRQMRHGLRPITMEQPELHLHPAHQAKLADVFQSAIERSNASGPEAVLLIETHSEALINRLGELIEYGKIAANDVQVVIFSARGEGEELNTEISTSTFDDNGALRDWPYGFFNY”, the “soluble on expression in E. coli” value is on record as “not soluble”.

As for “MGSDKIHHHHHHMRITIVTIFPEMVEVIKKYGVIARAVERGIVEINVENLRDYTTDRHRTVDDYQYGGGYGMVMKPEPFFRFYESYVEKYGKPYVILTSPQGRIFNYKIAEELSKKDDIVIFCGRYEGIDERVMSIVDDEISIGDYILTGGELPAMVITDAVVRLVPGVVERESVERESFHQGLLDHPVYTRPYEYKGMKVPDVLLSGDHEKVELWRRKESIKKTLAKRPDLFLAKELDEMDKLAIIELFRELMEKC”, the “soluble on expression in E. coli” value is reported as “not soluble”.

For the sequence “MGSDKIHHHHHHMRIVLGVSSGIAIYKAVDLASKLRKEGHELHVVMTPDATRMISPVVFSAVGNCSVYHDWMDVRNGWIPHTEISRTADVLVVAPATANTISKIANGIADNLLTLVALAFDKDAKILVPTMNYRMYSNKLFQENLEKLKNNGWFVVEPEEGHLACGEVGKGRYPENEKIVEAVHLLTFPKKLAGKKVLITAGPTRERIDAVRFITNASSGKMGYALATVAKRMGARVSLVSGPTSLKPPYYVDEFVKVESAEEMYEEVMKRFEDTDIVIMNAAVGDYRPKKVFEGKLKKTENDLVLHLERTKDILKELGQRKSNQILVGFAAEVENFEENAVKKLREKNLDLLVLNDARKAFSSDRVEVYIYGRDGFIKRIDEDDKIRVACGILDVVSNLAGGSPS”, the “soluble on expression in E. coli” value was “not soluble”.

With “MGSDKIHHHHHHMRKINMMTTFECRVHTLEFDENYQPEMQSTRLTTNFANLARGENRKENLQNVIAMIDKRFNDLANWDNPTNDRYSVKLEIVSIDIDMEGKGKFFPALEWLKTYVIDHKTGKRIDGIVGNNFSSFVRDYDFSVLLLEHNRNKEEFTVPKGYGELHGKLFKYLLTSSAYKEKYSKPPVICLSVATTRTYRRTTNVHPILGVEYHQDNYSLTDEYFAKMGLSVRYFMPPKSVAPYAFYFDSNSDLLNDYTNLELISTIATMEAFQKIYRPEIYNANSVAGQVYKGSLTYQDYSVTKVEYDRVERTQLAIKQGKYTEAHFIKPYKAILDAWMAEK”, the “soluble on expression in E. coli” value is “not soluble”.

Consider “MGSDKIHHHHHHMRKLALPLVAFLTGGLAACSSSDVVESQGITVENCGSVVNFDSPPSHIALMKSAAVPTLDALGVLDRVVTKAGAFPAGYYDADLSERVTDIPTLSNKIDASGHVLISKEVVVAANPDIVFGETDTINRASMASSNIPVVEEPAFCGSIDGDVSFDDVWSQISTYGTIFDRSTEADAYIATLKERVSEVSSRVTDSGKTVAVLYPTIGGGVTYAYGRGSMANPLVAEAGLTNVFADQSERVFEVTAEELISRNPDYIIVLHSDGSPSDIVAEVGNLQGSSALTALSENKVLPILMNFAEPPTPLAVDGLEKIIDFVETHP”, for which the “soluble on expression in E. coli” value was “not soluble”.

On to “MGSDKIHHHHHHMRLKVSFQAMESTVPLNYNYFLSSFIYKRLASQNENFARFLHEKGYGKRFKFFTFSQLFFENSRVSGERIFIFPGKGWWYISSPVVEFVRYMFSSLSEDPVIRVGKTEFIVKSIDIENSLPDQSEYHFVMLSPLVVSVPEENNGKLYHRYLHPGEEEFYEVFRKNLMKKYRAFYGKDPEGTVEVIPDWDYIKSRHRITKRIKLKNAFVRAVVFPFKIRGEKKLVEIGYEAGFGEKNSMGFGMVALKKYER”, for which the “soluble on expression in E. coli” value is given as “not soluble”.

Take “MGSDKIHHHHHHMRLVLEEPFKRLWNGRDPFEAVEALQGKVYRELEGRRTLRTEVDGRGYFVKIHRGIGWGEIAKNLLTAKLPVLGARQEWQAIRRLHEAGVATMTAVAYGERGSDPARQHSFIVTEELAPTVDLEVFSQDWRERPPPPRLKRALVEAVARMVGDMHRAGVNHRDCYICHFLLHTDKPVSADDFRLSVIDLHRAQTRDATPKRWRNKDLAALYFSALDIGLTRRDKLRFLRTYFRRPLREILRDEAGLLAWMERKAEKLYERKQRYGDLL”: the “soluble on expression in E. coli” value is reported as “not soluble”.

Consider “MGSDKIHHHHHHMRNPKPQEWKTEDYSQKKIADYKAFNFVDGEGVRNSLYVSGCLFACEGCFNKAVQNFNYGTPFTESLMNQIIEDLSHDYVQGLTLLGGEPFLNTDVCLSVVKRVRETFGSAKDIWSWSGYTFEELLLETPDKLELLHSIDILVDGRFELAKRNLNLQFRGSSNQRIIDVPKSLAAGKAVIWEKCHDAETSYEQIKKSI”, for which the “soluble on expression in E. coli” value is “not soluble”.

As to “MGSDKIHHHHHHMRNRREVSKLLSERVLLLDGAYGTEFMKYGYDDLPEELNIKAPDVVLKVHRSYIESGSDVILTNTFGATRMKLRKHGLEDKLDPIVRNAVRIARRAAGEKLVFGDIGPTGELPYPLGSTLFEEFYENFRETVEIMVEEGVDGIIFETFSDILELKAAVLAAREVSRDVFLIAHMTFDEKGRSLTGTDPANFAITFDELDIDALGINCSLGPEEILPIFQELSQYTDKFLVVEPNAGKPIVENGKTVYPLKPHDFAVHIDSYYELGVNIFGGCCGTTPEHVKLFRKVLGNRKPLQRKKKRIFAVSSPSKLVTFDHFVVIGERINPAGRKKLWAEMQKGNEEIVIKEAKTQVEKGAEVLDVNFGIESQIDVRYVEKIVQTLPYVSNVPLSLDIQNVDLTERALRAYPGRSLFNSAKVDEEELEMKINLLKKYGGTLIVLLMGKDVPKSFEERKEYFEKALKILERHDFSDRVIFDPGVLPLGAEGKPVEVLKTIEFISSKGFNTTVGLSNLSFGLPDRSYYNTAFLVLGISKGLSSAIMNPLDETLMKTLNATLVILEKKELPRAEVKEEKLVEIILSGNRSELEKLVEDFLKEKDPLSVIEEHLRPAMERIGELYDKGKIFLPQLILAAQTVKPVFDKLTSMLPSDSQGETFVIATVKGDVHDIGKNIVASVIRSSGYRVVDLGKDVDTSEIVEAVEKERPVALGLSAMMTTTVGRIKEVVEKLKEKNLKIPVIVGGASLNEKLAKELGADYYAKNASEAVKILKSLGR”, the “soluble on expression in E. coli” value is “not soluble”.

As to “MGSDKIHHHHHHMRTIDTIFSSEVNVPLYHYTGIGSLLGMANCKSVWASSISYMNDSKEIVHACETVENVLRARIVFGQKDEEHRFLEQLIEWTKSCSKVAHTMFVFSLSEKPSLLSQWRSYTPHGKGVSLEFSPNKVNEIARFTGMRIAKCVYDDREQEEIISILVEKLLVNFRQELPAMDITDKPPSQCYYDFINQYTSDIYQVLAIIKHGAFEEECEWRLISPHIPKFGDPRLKFREGASMLVPYIELPLGDKPFFRKIILGPSQHQNLNMSGLSMFMSNQGISNELLNCQIPYREW”, the “soluble on expression in E. coli” value was “not soluble”.

Take “MGSDKIHHHHHHMRTRYVDIDDRMEDLADRLRGDPEIVQDFLARYELSWLYHENALEGVVYSSQELATALANAPLADVTFVSALQEIRNHKVALDLVREEAAAKKPKLNLTTVKKLYETLGHGIEGRSVAEYRKDMPLHRAYFHDIAQPPKIQPALQKLLEATEGADFRNAHPIQQACKLHHGFMQVFPFTENSGRVARLLANLVLLHAGYKLPVIVHATDRQRYYESLRLPDTILRDLTMEALDNALTQAEKYFAEAPRARKAAR”: the “soluble on expression in E. coli” value is on record as “not soluble”.

For the sequence “MGSDKIHHHHHHMRTYTKEIQAIIDNVEKVIIGKENVITQSLAALLAGGHVLLEDVPGVGKTMLVRAFSRSIGLTFKRVQFTPDLLPSDLTGVSMYNQKTSQFEYRPGPLMGNIVLADEINRTSPKTQSALLEGMAEANVTVDGEIHTLPNPFFVMATQNPIEHEGTYPLPEAQLDRFLIKVKMGYPDFQQEMKLLTRFERDEPIETLESVITRDELLRMKEDVKAVHVSQPVKKYIVHLVQATRTHASLYLGASPRSSIALMKVAQAWAYMEGRSFVLPDDVKELLTPVLSHRLILTADARYHGQTAERILEQVKKEVAVPIQQDVESL”, the “soluble on expression in E. coli” value was “not soluble”.

“MGSDKIHHHHHHMRVGATLARAIALKYNKKLVPVNHGIGHIEIGYLTTEARDPLILYLSGGNTIITTFYKGRFRVFGETLDIALGNMMDVFVREVSLAPPYIINGIHVIDICAEKGNKLLKLPYVVKGQDMSFSGLLTAALRVVGKEKLEDICYSVREIAFDMLLEATERALALTSKKELMIVGGVAASVSLRKKLEELGKEWNVQIKIVPPEFAGDNGAMIAYAGMLAASKGVFIDVDKSYIRPRWRVDEVDIPWRN”: the “soluble on expression in E. coli” value is “not soluble”.

Regarding “MGSDKIHHHHHHMRVLFVAPNYYPHIGGVERHVREVSLELQKDGHSITILVPKHDSSYGDFEREGNIEVVRLNKPQTKLFTGLERVLQVAGVSGRFLKADIVNFHDVATMWRYGLWIYPILRVLGKKVYITFHGWEGHFPPKDKIVARRKLAARLADGTMCVGHFIEKWYGTRADVVTYGGVHRSSLPEAHENSVVFVGRLAKDSGIDSYLRAWEWIVRDHPELRLVICGDGAMKKELEDFVCHTGLRNVEFLGLVENPLPYVTDAKVVFTSGYLGILEAFSRKKPVVAVYDNELKKDYLEMMPDSRRLMWIARDSKEVARCVDEALLDREKTERAYRYSLENSWTKVKEDYYRLWNVDGEHGESHGGRGR”, the “soluble on expression in E. coli” value was “not soluble”.

Regarding “MGSDKIHHHHHHMRYAFWNNKGGTGKTSLAFQSICRFAELNPHARILAIDVCPQANLSELMLGGLTNQGSARLMQRQGQVPRCSIGGYFQLRLPAPYTRPAFTASDFITTPNQYNPLIPGNIDLVCGDPLLELQANAVNTLANAQIPGTNTWIAVIDWISDFLESAEGYDYVFFDANPSFSIYTQIALSATNRVILPVMADDSSRRAIQNAFSLIYGLRLPSPIYATYNFATKLREAERPLPQVHLIPKNRLTQYMGPASAFYAVLAAIDQDVAGLLVQRPDLFTFADVADGVVDVRDFQTTGVVSYAKGAPFSQLRTGRLDIGGHRVRVDADMRQNCIDAIDGLVDRIE”, the “soluble on expression in E. coli” value is reported as “not soluble”.

Consider “MGSDKIHHHHHHMSADIVFDRGSPSDIDEIKTFTSNTWKVGYYTDLYSKLADTGTMDDYVDKVIERWVNDGSVYVLRVSGRPVATIHMEKLPDGSVMLGGLRVHPEYRGSRLGMSIMQETIQFLRGKTERLRSAVYSWNEPSLRLVHRLGFHQVEEYPIYTFQGGSTAVPALKPVNERYAGRWRCFFIDWKYMCSDDPDIIHEEYSNNLIVDGSTFVYFDIYEGGIDLFVNDSDDASSFIEKYRSMNGRITFYVRKALANGLPYVPASSLTVWEYRY”, for which the “soluble on expression in E. coli” value is reported as “not soluble”.

As for “MGSDKIHHHHHHMSAKKNEIRSKLALLQLATELGSISKACGIMGYSRDSYYRFKKQYETAGERGLKNLSRRKPALKNRVSQAVEDQVIEIALDYPNYGQAKVAELLTARGCAISASGVRTIWVRHNLETKKNRLLALHSKLKQDNNLAPSDQVRIEKLYQLDSNDPIFECLYPGDICVQDTFDLGVISPLGQLYQHTFVDGYSQFAIAVIMPERDSASAAEFLEQTVLPWYATAQGLNINTILTDRGSEFFGKKSQQFSDVLSAHNINHIQMRAYNGPVVNGLAARFQDLAYHEFYEPFLKENKAGSLLDLNQQLANWLYDYNHSHAISGRYTLGKTAAEVLKLTKHLSEASSQCS”, the “soluble on expression in E. coli” value is reported as “not soluble”.
